Test results published in PMC7954794 (2021).

B1: S. cerevisiae Abp1 (full length; SH3 domain 535-592 mutated) / Hua2 (parent complex)
chain 1: MALEPIDYTTHSREIDAEYLKIVRGSDPDTTWLIISPNAKKEYEPESTGSSFHDFLQLFDETKVQYGLARVSPPGSDVEKIIIIGWCPDSAPLKTRASFAANFAAVANNLFKGYHVQVTARDEDDLDENELLMKISNAAGARYSIQTSSKQQGKASTPPVKKSFTPSKSPAPVSKKEPVKTPSPAPAAKISSRVNDNNDDDDWNEPELKERDFDQAPLKPNQSSYKPIGKIDLQKVIAEEKAKEDPRLVQKPTAAGSKIDPSSDIANLKNESKLKRDSEFNSFLGTTKPPSMTESSLKNDDDKVIKGFRNEKSPAQLWAERKAKQNSGNAETKAEAPKPEVPEDEPEGEPDVKDLKSKFEGLAASEKEEEEMENKFAPPPKKSEPTIISPKPFSKPQEPVKAEEAEQPKTDYKKIGNPLPGMHIEADNEEEPEENDDDWDDDEDEAAQPPLPSRNVASGAPVQKEEPEQEEIAPSLPSRNSIPAPKQEEAPEQAPEEEIEEEAEEAAPQLPSRSSAAPPPPPRRATPEKKPKENPWATAEYDYDAAEDNELTFVENDKIINIEFVDDDWWLGELEKDGSKGLFPSNYVSLGN
chain 2: MQQTKFGKMYLDHDSVVEYSEDEIVEADRITLGYKKRLSMIENQMRHLLEDFSLDVQQIEPILADLQKYYDAFLQLLQKRNKSLQCKRSTHQPVPSPMNSQTSTNAKVNLSGKLMKFQLNSVQKFDEENILRILQNKIEFEHYFQIDKGKKQKVLLLAVYQCLNGPTRLHKVLNIEGIIHNNSIRTILGKQVSSSKWTVFLYDVKLVLLAHRQDVPNLETSKMIVRYGDLFPCALYFKDHTAY

Variants of: B1
Experiment: DHFR protein-fragment complementation in yeast (Abp1-DHFR F[1,2] x partner-DHFR F[3]), deep mutational scanning, second methotrexate selection vs reference; S. cerevisiae, DHFR-PCA selection in liquid with methotrexate at 30 C, two 72 h selections (the score uses the second); reference = the pre-selection culture

Variant	screen value
chain 1 MALEPIDYTTHSREIDAEYLKIVRGSDPDTTWLIISPNAKKEYEPESTGSSFHDFLQLFDETKVQYGLARVSPPGSDVEKIIIIGWCPDSAPLKTRASFAANFAAVANNLFKGYHVQVTARDEDDLDENELLMKISNAAGARYSIQTSSKQQGKASTPPVKKSFTPSKSPAPVSKKEPVKTPSPAPAAKISSRVNDNNDDDDWNEPELKERDFDQAPLKPNQSSYKPIGKIDLQKVIAEEKAKEDPRLVQKPTAAGSKIDPSSDIANLKNESKLKRDSEFNSFLGTTKPPSMTESSLKNDDDKVIKGFRNEKSPAQLWAERKAKQNSGNAETKAEAPKPEVPEDEPEGEPDVKDLKSKFEGLAASEKEEEEMENKFAPPPKKSEPTIISPKPFSKPQEPVKAEEAEQPKTDYKKIGNPLPGMHIEADNEEEPEENDDDWDDDEDEAAQPPLPSRNVASGAPVQKEEPEQEEIAPSLPSRNSIPAPKQEEAPEQAPEEEIEEEAEEAAPQLPSRSSAAPPPPPRRATPEKKPKENPWATAEYDYDAAEDNELTFVENDKIINIEFVDDDWWLGELEKDGSKGLFPSNYVSLHN [chain 1 G591H]	-0.407 DMS score: mean over two replicates of log2(f_test/f_ref + 0.5)/ln 2, minus the synonymous-codon median (not a log2 …
chain 1 MALEPIDYTTHSREIDAEYLKIVRGSDPDTTWLIISPNAKKEYEPESTGSSFHDFLQLFDETKVQYGLARVSPPGSDVEKIIIIGWCPDSAPLKTRASFAANFAAVANNLFKGYHVQVTARDEDDLDENELLMKISNAAGARYSIQTSSKQQGKASTPPVKKSFTPSKSPAPVSKKEPVKTPSPAPAAKISSRVNDNNDDDDWNEPELKERDFDQAPLKPNQSSYKPIGKIDLQKVIAEEKAKEDPRLVQKPTAAGSKIDPSSDIANLKNESKLKRDSEFNSFLGTTKPPSMTESSLKNDDDKVIKGFRNEKSPAQLWAERKAKQNSGNAETKAEAPKPEVPEDEPEGEPDVKDLKSKFEGLAASEKEEEEMENKFAPPPKKSEPTIISPKPFSKPQEPVKAEEAEQPKTDYKKIGNPLPGMHIEADNEEEPEENDDDWDDDEDEAAQPPLPSRNVASGAPVQKEEPEQEEIAPSLPSRNSIPAPKQEEAPEQAPEEEIEEEAEEAAPQLPSRSSAAPPPPPRRATPEKKPKENPWATAEYDYDAAEDNELTFVENDKIINIEFVDDDWWAGELEKDGSKGLFPSNYVSLGN [chain 1 L571A]	-0.0753 DMS score: mean over two replicates of log2(f_test/f_ref + 0.5)/ln 2, minus the synonymous-codon median (not a log2 …

Second part, the variant after the results:

screen value	Variant
-0.753 DMS score: mean over two replicates of log2(f_test/f_ref + 0.5)/ln 2, minus the synonymous-codon median (not a log2 …	chain 1 MALEPIDYTTHSREIDAEYLKIVRGSDPDTTWLIISPNAKKEYEPESTGSSFHDFLQLFDETKVQYGLARVSPPGSDVEKIIIIGWCPDSAPLKTRASFAANFAAVANNLFKGYHVQVTARDEDDLDENELLMKISNAAGARYSIQTSSKQQGKASTPPVKKSFTPSKSPAPVSKKEPVKTPSPAPAAKISSRVNDNNDDDDWNEPELKERDFDQAPLKPNQSSYKPIGKIDLQKVIAEEKAKEDPRLVQKPTAAGSKIDPSSDIANLKNESKLKRDSEFNSFLGTTKPPSMTESSLKNDDDKVIKGFRNEKSPAQLWAERKAKQNSGNAETKAEAPKPEVPEDEPEGEPDVKDLKSKFEGLAASEKEEEEMENKFAPPPKKSEPTIISPKPFSKPQEPVKAEEAEQPKTDYKKIGNPLPGMHIEADNEEEPEENDDDWDDDEDEAAQPPLPSRNVASGAPVQKEEPEQEEIAPSLPSRNSIPAPKQEEAPEQAPEEEIEEEAEEAAPQLPSRSSAAPPPPPRRATPEKKPKENPWATAEYDYDAAEDNELTFVENDKIINIEFVDDDWWLGELEKDGSKGLFPSNYVFLGN [chain 1 S589F]
0.916 DMS score: mean over two replicates of log2(f_test/f_ref + 0.5)/ln 2, minus the synonymous-codon median (not a log2 …	chain 1 MALEPIDYTTHSREIDAEYLKIVRGSDPDTTWLIISPNAKKEYEPESTGSSFHDFLQLFDETKVQYGLARVSPPGSDVEKIIIIGWCPDSAPLKTRASFAANFAAVANNLFKGYHVQVTARDEDDLDENELLMKISNAAGARYSIQTSSKQQGKASTPPVKKSFTPSKSPAPVSKKEPVKTPSPAPAAKISSRVNDNNDDDDWNEPELKERDFDQAPLKPNQSSYKPIGKIDLQKVIAEEKAKEDPRLVQKPTAAGSKIDPSSDIANLKNESKLKRDSEFNSFLGTTKPPSMTESSLKNDDDKVIKGFRNEKSPAQLWAERKAKQNSGNAETKAEAPKPEVPEDEPEGEPDVKDLKSKFEGLAASEKEEEEMENKFAPPPKKSEPTIISPKPFSKPQEPVKAEEAEQPKTDYKKIGNPLPGMHIEADNEEEPEENDDDWDDDEDEAAQPPLPSRNVASGAPVQKEEPEQEEIAPSLPSRNSIPAPKQEEAPEQAPEEEIEEEAEEAAPQLPSRSSAAPPPPPRRATPEKKPKENPWATAEYDYDAAEDNELTFVENDKIINIEFVDDDWWLGELEKDGSKGLFPSNYVDLGN [chain 1 S589D]
-1.58 DMS score: mean over two replicates of log2(f_test/f_ref + 0.5)/ln 2, minus the synonymous-codon median (not a log2 …	chain 1 MALEPIDYTTHSREIDAEYLKIVRGSDPDTTWLIISPNAKKEYEPESTGSSFHDFLQLFDETKVQYGLARVSPPGSDVEKIIIIGWCPDSAPLKTRASFAANFAAVANNLFKGYHVQVTARDEDDLDENELLMKISNAAGARYSIQTSSKQQGKASTPPVKKSFTPSKSPAPVSKKEPVKTPSPAPAAKISSRVNDNNDDDDWNEPELKERDFDQAPLKPNQSSYKPIGKIDLQKVIAEEKAKEDPRLVQKPTAAGSKIDPSSDIANLKNESKLKRDSEFNSFLGTTKPPSMTESSLKNDDDKVIKGFRNEKSPAQLWAERKAKQNSGNAETKAEAPKPEVPEDEPEGEPDVKDLKSKFEGLAASEKEEEEMENKFAPPPKKSEPTIISPKPFSKPQEPVKAEEAEQPKTDYKKIGNPLPGMHIEADNEEEPEENDDDWDDDEDEAAQPPLPSRNVASGAPVQKEEPEQEEIAPSLPSRNSIPAPKQEEAPEQAPEEEIEEEAEEAAPQLPSRSSAAPPPPPRRATPEKKPKENPWATAEYDYDAAEDNELTFVENDKIINIEFHDDDWWLGELEKDGSKGLFPSNYVSLGN [chain 1 V565H]
